Test results reported in the supplement of paper PMC7125110.
± gives the standard error. Fewer inactive variants are shown than the library holds.

B1: glmS ribozyme (parent)
chain: AUAAAAGCGCCAGAACUACAGAAAUGUAGUUGACGAGGAGGAGGUUUAUCGAAUUUUCGGCGGAUGCCUCCAAA

Variants of: B1
Experiment: self-cleavage kobs at 10000 uM GlcN6P; higher = faster cleavage; RNA array
Details: with glucosamine-6-phosphate
Summary of the method: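 On sequenced MiSeq chips, barcoded ribozyme variants were made in situ by E. coli RNA polymerase and followed at 37 °C through a hybridised Cy3 probe. Glucosamine-6-phosphate was flowed in at 40 μM to 10 mM in HEPES/KCl/Mg(OAc)2 buffer. Exponential fits to normalised per-tile medians gave kobs, and weighted Michaelis–Menten fits gave kcat and KM.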

Row | Variant | self-cleavage kobs at 10000 uM GlcN6P
1 | AUAAAAGCGCCUGAACUACAGAAAUGUAGUUGACGAGGAGGAGAUUUAUCGUAUUUUCGGCGGAUGCCUCCAAA [A12U G44A A52U] | 4.81e-05 ± 2e-05 s⁻¹
2 | AUAAAAGCGCCACAACUACAGAAAUGUAGUUGACGCGGAGGAGGUUUAUCGAACUUUCGGCGGAUGCCUCCAAA [G13C A36C U54C] | < 1e-05 s⁻¹
3 | AUAAAAGCGCCAGCACUACAGAAAUGUAGUUGACGAGGAGCAGGUUUAUCGAAUUUUCGGCGGAUGCCUCCAAA [A14C G41C] | 3.51e-05 ± 1.1e-05 s⁻¹
4 | AUAAAAGCGCCUGAACUACAGAAAUGUAGUUGACGAGGAGGAGGUUUAUCGAAUUUUCAGCGGAUGGCUCCAAA [A12U G59A C67G] | 4.16e-05 ± 1.6e-05 s⁻¹
5 | AUAAAAGCGCCAGGACUACAGAAAUGUAGUUGACGAGGAGGAGGUUUAUCGAAUUUUUGGCGGAUGCCUCUAAA [A14G C58U C71U] | 0.00012 ± 2.1e-05 s⁻¹
6 | AUAAAAGCGCCAUAACUACAGAAAUGUAGUUGACGAGCAGGAGGUUUAUCGAAUUUUUGGUGGAUGCCUCCAAA [G13U G38C C58U C61U] | < 1e-05 s⁻¹
7 | AUAAAAGCGCCAGGACUACAGAAAUGUAGUUGACGAGGACGAGGUUUAGGCAAUUUUCGGCGGAUGCCUCCAAA [A14G G40C U49G C50G G51C] | < 1e-05 s⁻¹
8 | AUAAAAGCGCCUGAACUACAGAAAUGUAGAUGACGAGGUGGAGGUUUAUCGAAUCUUCGGCGGAUGCCUCCAAA [A12U U30A A39U U55C] | 0.0143 ± 0.0028 s⁻¹
9 | AUAAAAGCGCCAAAACUACAGAAAUGUAGUUGACGAGGAGGAGGUUUAUGGAAUUUUCGGCGGAUUCCUCCAAA [G13A C50G G66U] | 6.48e-05 ± 2.1e-05 s⁻¹
10 | AUAAAAGCGCCAGGAAUACAGAAAUGUAGUUGACGAGGACGAGGUUUAUCGAAUUUUCGGCGUAUGCCUCCAAA [A14G C16A G40C G63U] | < 1e-05 s⁻¹
11 | AUAAAAGCGCCGGAACUACAGAAAUGUAGUUGACGAGGAGGAGGUUUAUCGAAUAUUCGGCGGAUGCUUCCAAA [A12G U55A C68U] | 0.00042 ± 0.0001 s⁻¹
12 | AUAAAAGCGCCUGAUCUACAGAAAUGUAAUUGACGAGGAGGAGGUUUAUCGAAUUUUCGGCGGAUGCCUCCAAA [A12U A15U G29A] | 0.00126 ± 0.00032 s⁻¹
13 | AUAAAAGCGCCACAACUACAGAAAUGUAGUUGACGAGGAGGCGGUUUAUUGAAUUUUCGGCGGAUGCCUCCAAA [G13C A42C C50U] | < 1e-05 s⁻¹
14 | AUAAAAGCGCCAGCACUACAGAAAUGUAGUUGACGAGGAGGAGGUUUAUCUAAUUUUCGGCGGAUGCCUCCAAA [A14C G51U] | < 1e-05 s⁻¹
15 | AUAAAAGCGCCAGCACUACAGAAAUGUAGUUGGCGAGGAGGAGGUUUAUCGAAUUUUGGGCGGACGCCUCCAAA [A14C A33G C58G U65C] | < 1e-05 s⁻¹
16 | AUAAAAGCGCCACAACUACAGAAAUGUAGUUGACGAGGAGGAAGUUUAUCGAAUUUUCGGCGGAUGCCUCCAAA [G13C G43A] | < 1e-05 s⁻¹
17 | AUAAAAGCGCCAGCACUACAGAAAUGUAGUUGACGAGGUGGAGGUUUAUCGAAUUUUCGGCGGAUGGCUCCAAA [A14C A39U C67G] | 0.000928 ± 0.00017 s⁻¹
18 | AUAAAAGCGCCAUAACUACAGAAAUGUAGUUGACGAGGGGGAGGUUUAUCGAAUUUUCGGCGGAUGCUUCCAAA [G13U A39G C68U] | 0.000334 ± 8.3e-05 s⁻¹
19 | AUAAAAGCGCCGGAACUACAGAAAUGUAGUUGACGAGGAGUAGGUUUAUCGAAUUUUCGGCGGAUGCCUUCAAA [A12G G41U C70U] | 0.00122 ± 0.00022 s⁻¹

Row | Variant | self-cleavage kobs at 10000 uM GlcN6P
20 | AUAAAAGCGCCAAAAUUACAGAAAUGUAGUUUACGAGGAGGAGGUUUAUCGAAUUUUCGGCGGAUGCCUCCAAA [G13A C16U G32U] | 0.000302 ± 4.9e-05 s⁻¹
21 | AUAAAAGCGCCACAACUACAGAAAUGUAGCUGACGAGGAGGAGGUUAAUCGAAUUUUCGGCGGAUGCCUCCAAA [G13C U30C U47A] | 8.1e-05 ± 2.1e-05 s⁻¹
22 | AUAAAAGCGCCAGGACUACAGAAAUGUAGUUGACGAGGAGGAGGUUUAUCGAAUUUUCGGCGGGUGCGUCCAAA [A14G A64G C68G] | < 1e-05 s⁻¹
23 | AUAAAAGCGCCGGAACUACAGAAAUGUAGUUGACGAGGAGGAGGAUUAUCGAAUUUUCGGCGGAUGCCUCUAAA [A12G U45A C71U] | 0.00191 ± 0.0004 s⁻¹
24 | AUAAAAGCGCCUGAACUACAGAAAUGUAGUUGAAGAGGUGGAGGUUUAUCGAAUUUUCGGCGGAUGCCUUCAAA [A12U C34A A39U C70U] | < 1e-05 s⁻¹
25 | AUAAAAGCGCCUGAACUACAGAAAUGUAGUUGACGAGGAGGAGGUUUAUGGAAUUUUCGGCAGAUGCCUCUAAA [A12U C50G G62A C71U] | 8.18e-05 ± 2.2e-05 s⁻¹
26 | AUAAAAGCGCCGGAACUACAGAAAUGUAGUUGACGAGGAGGAGUUUUAUCGAAUUUUGGGCGGAUGCCUCCAAA [A12G G44U C58G] | < 1e-05 s⁻¹
27 | AUAAAAGCGCCAGCACUACAGAAAUGUAGUUGACGAGGAGGCGGUGUAUCGGAUUUUCGGCGGAUGCCUCCAAA [A14C A42C U46G A52G] | < 1e-05 s⁻¹
28 | AUAAAAGCGCCAUAACUACAGAAAUGUAGUUGACGAGGAGGAGGUUUAUCGAAAUCUCGGCGGAUGCCUCCAAA [G13U U54A U56C] | 0.000163 ± 3.3e-05 s⁻¹
29 | AUAAAAGCGCCAUAACUACAGAAAUGUAGAUGACGAGGAGGACGUUUAUCGAAUUUUCGGCGGAUGCCUCCAAA [G13U U30A G43C] | < 1e-05 s⁻¹
30 | AUAAAAGCGCCGGAACUACAGAAAUGUAGGUGACGAGGAGGAGGUUCACCGAAUUUUCGGCGGAUGCCUCCAAA [A12G U30G U47C U49C] | < 1e-05 s⁻¹
31 | AUAAAAGCGCCAAAACUACAGAAAUGUAGUUGACGAGGAGGAGGUAUAUCGAAUUUUCGGCGGAUGCCUCCAAA [G13A U46A] | 4.05e-05 ± 1.3e-05 s⁻¹
32 | AUAAAAGCGCCAGCACUACAGAAAUGUAGUUGACGAGCAGGAGGUUUAUCGAAUUUUCGUCGGAUGCCUCCAAA [A14C G38C G60U] | < 1e-05 s⁻¹
33 | AUAAAAGCGCCGGCACUACAGAAAUGUAGUUGACGAGGAGGAGGUUUAUGGAAUUUUCGGCGGAUGCCUCAAAA [A12G A14C C50G C71A] | 0.000133 ± 3.2e-05 s⁻¹
34 | AUAAAAGCGCCAAAACUACAGAAAUGUAAUUGACGAGGAGGAGGUUUAUCGAAUUUUCGGCGUAUGCCUCCAAA [G13A G29A G63U] | < 1e-05 s⁻¹
35 | AUAAAAGCGCCACAACUACAGAAAUGUAGUUGACGAGGAAGAGGUUUAUCGAAUUUUCGGCGGAUGCCUCCAAA [G13C G40A] | 2.64e-05 ± 9.8e-06 s⁻¹
36 | AUAAAAGCGCCACAACUACAGAAAUGUAGUUGACGAGGAGGAGGUUUAUCGAAUUUUCGGCGGAAGCCUCCAAA [G13C U65A] | < 1e-05 s⁻¹
37 | AUAAAAGCGCCAGCACUACAGAAAUGUAGUUGACGAGGAGGAGGUUUCUCGAAUUUUCUGCGGAUGCCUCCAAA [A14C A48C G59U] | < 1e-05 s⁻¹
